Legend:
hLTBP1-proTGFβ1 [1] = molecular target: T1, hLTBP1-proTGFβ1 (human, UniProt Q14766 347-1721; P01137 30-390, limits assumed); experiment: SPR (Biacore), Fab
T1 construct: Large latent complex (LLC): proTGFβ1 dimer disulfide-linked to one presenting molecule; recombinant, purified, biotinylated in BLI/SPR; The same id is used for the complex made by transfected cells in the reporter assays; also called human LTBP1-proTGFβ1 complex; LTBP1-ProTGFb1
Experimental: (§1) Surface plasmon resonance (SPR) was used to measure binding kinetics using a BIACORE® system. […] Experiments were carried out with eight types of LLCs, namely, hLTBP1-proTGFβ1, mLTBP1-proTGFβ1, hLTBP3-proTGFβ1, mLTBP3-proTGFβ1, hGARP-proTGFβ1, mGARP-proTGFβ1, hLRRC33-proTGFβ1 and mLRRC33-proTGFβ1.
(§2) In vitro binding kinetics (on/off rates) were measured in Biacore-based assays and affinities were determined against all four known LLCs using both human and murine counterparts for each. Based on the association rate and dissociation rate, KD was calculated for each. In addition, relative affinities, as compared to the reference antibody as a benchmark, were calculated and expressed as “fold difference” relative to the reference antibody.
(§3) A BIACORE® system was employed to determine the monovalent binding affinity and the kinetic parameters for antigen binding of test antibodies. The binding kinetics were evaluated by surface plasmon resonance using Biacore 8K (GE Healthcare). A Biotin CAP sensor chip was used to capture the biotinylated antigens. […] Multi-cycle kinetics was employed where each analyte concentration was injected in a separate cycle and the sensor chip surface was regenerated after each cycle. All the assays were carried out in freshly prepared 1×HBS-EP+buffer (10 mM HEPES, 150 mM NaCl, 3 mM EDTA, 0.05% Tween20, pH 7.4). Data for all the analyte concentrations for each interaction were fit globally to a 1:1 binding model to obtain the kinetic parameters. The Sensorgram for 0 nM analyte concentration was used as reference.

hLTBP3-proTGFβ1 [2] = molecular target: T2, hLTBP3-proTGFβ1 (human, UniProt Q9NS15 44-1303; P01137 30-390, limits assumed); experiment: SPR (Biacore), Fab
T2 construct: LLC as m1; Same id used for the cell-made complex in reporter assays; also called human LTBP3-proTGFβ1 complex; LTBP3-ProTGFb1
Experimental: as §1, §2, §3

hGARP-proTGFβ1 [3] = molecular target: T3, hGARP-proTGFβ1 (human, UniProt Q14392 18-627; P01137 30-390, limits assumed); experiment: SPR (Biacore), Fab
T3 construct: LLC as m1; Same id used for the cell-surface complex in reporter assays; also called human GARP-proTGFβ1 complex; GARP-ProTGFb1
Experimental: as §1, §2, §3

mLTBP1-proTGFβ1 = molecular target: T4, mLTBP1-proTGFβ1 (mouse); experiment: SPR (Biacore), Fab
T4 construct: Murine LLC; also called murine LTBP1-proTGFβ1 complex
Experimental: as §1, §2, §3

mLTBP3-proTGFβ1 = molecular target: T5, mLTBP3-proTGFβ1 (mouse); experiment: SPR (Biacore), Fab
T5 construct: Murine LLC; also called murine LTBP3-proTGFβ1 complex
Experimental: as §1, §2, §3

mGARP-proTGFβ1 [4] = molecular target: T6, mGARP-proTGFβ1 (mouse); experiment: SPR (Biacore), Fab
T6 construct: Murine LLC; also called murine GARP-proTGFβ1 complex
Experimental: as §1, §2, §3

hLRRC33-proTGFβ1 [5] = molecular target: T7, hLRRC33-proTGFβ1 (human, UniProt Q86YC3 19-650; P01137 30-390, limits assumed); experiment: SPR (Biacore), Fab
T7 construct: LLC as m1; Same id used for the cell-surface complex in reporter assays; also called human LRRC33-proTGFβ1 complex; LRRC33-ProTGFb1

mLRRC33-proTGFβ1 = mLRRC33-proTGFβ1 (murine, UniProt Q8BMT4 20-651); experiment: SPR (Biacore), Fab
mGARP-proTGFβ1 [6] = molecular target: T6, mGARP-proTGFβ1; experiment: SPR (Biacore), Fab; affinity relative to Ref
hLRRC33-proTGFβ1 [7] = molecular target: T7, hLRRC33-proTGFβ1; experiment: SPR (Biacore), Fab; affinity relative to Ref
hLTBP1-proTGFβ1 [8] = molecular target: T1, hLTBP1-proTGFβ1; experiment: SPR (Biacore 8K), biotinylated antigen captured, Fab as analyte
Experimental: as §3
(§4) The binding kinetics of antibody interactions with each of the antigen complexes, human LTBP1-ProTGFb1, human LTBP3-ProTGFb1, human GARP-ProTGFb1, and human LRRC33-ProTGFb1, were evaluated by surface plasmon resonance. Binding kinetics was evaluated by surface plasmon resonance using a BIACORE® 8K (GE) instrument. Biotinylated antigens were captured on a Biotin CAP chip and the Fab fragments of the antibodies were used as analytes. Sensorgrams for Fab binding at variable concentrations (0.6-10 nM) were globally fit to obtain the kinetic parameters.
(§5) Binding kinetics for the Fabs were evaluated against each of the four human antigens, LTBP1-ProTGFb1, LTBP3-ProTGFb1, GARP-ProTGFb1, and LRRC33-ProTGFb1. […] These experiments were repeated.

hLTBP3-proTGFβ1 [9] = molecular target: T2, hLTBP3-proTGFβ1; experiment: as above
Experimental: as §3, §4, §5

hGARP-proTGFβ1 [10] = molecular target: T3, hGARP-proTGFβ1; experiment: as above
Experimental: as §3, §4, §5

hLRRC33-proTGFβ1 [11] = molecular target: T7, hLRRC33-proTGFβ1; experiment: as above
Experimental: as §3, §4, §5

T6 sequence (G3XA59 18-663, chain 1 of 2): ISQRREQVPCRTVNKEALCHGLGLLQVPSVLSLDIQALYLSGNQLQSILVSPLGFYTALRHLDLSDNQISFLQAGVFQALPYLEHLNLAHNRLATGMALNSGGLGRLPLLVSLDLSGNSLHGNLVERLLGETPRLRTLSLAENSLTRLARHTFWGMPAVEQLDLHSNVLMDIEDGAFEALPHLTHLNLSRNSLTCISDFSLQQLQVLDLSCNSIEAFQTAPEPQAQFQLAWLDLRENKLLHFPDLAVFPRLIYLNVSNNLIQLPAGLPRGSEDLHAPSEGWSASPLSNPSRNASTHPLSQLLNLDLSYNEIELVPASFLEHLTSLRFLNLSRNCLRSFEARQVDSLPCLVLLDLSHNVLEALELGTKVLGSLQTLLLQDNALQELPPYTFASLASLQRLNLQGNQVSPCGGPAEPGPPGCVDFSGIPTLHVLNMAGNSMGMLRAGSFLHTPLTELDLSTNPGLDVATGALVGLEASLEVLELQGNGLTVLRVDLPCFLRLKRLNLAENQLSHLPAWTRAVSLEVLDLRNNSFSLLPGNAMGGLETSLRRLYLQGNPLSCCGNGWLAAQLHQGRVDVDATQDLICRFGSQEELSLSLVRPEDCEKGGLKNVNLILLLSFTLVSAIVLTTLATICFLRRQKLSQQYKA
T6 sequence (P04202 30-390, chain 2 of 2, further chain): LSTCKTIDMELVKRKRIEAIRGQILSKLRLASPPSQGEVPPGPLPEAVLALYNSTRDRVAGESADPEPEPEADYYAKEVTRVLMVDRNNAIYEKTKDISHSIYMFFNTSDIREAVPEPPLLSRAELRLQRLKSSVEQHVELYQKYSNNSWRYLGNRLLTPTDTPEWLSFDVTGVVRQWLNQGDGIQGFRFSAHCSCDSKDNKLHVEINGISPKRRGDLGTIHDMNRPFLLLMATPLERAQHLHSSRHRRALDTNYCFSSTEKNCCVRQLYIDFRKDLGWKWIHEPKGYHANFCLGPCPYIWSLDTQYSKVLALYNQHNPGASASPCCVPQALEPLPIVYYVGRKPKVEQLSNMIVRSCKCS
T2 sequence (Q9NS15 44-1303 limits assumed, chain 1 of 2): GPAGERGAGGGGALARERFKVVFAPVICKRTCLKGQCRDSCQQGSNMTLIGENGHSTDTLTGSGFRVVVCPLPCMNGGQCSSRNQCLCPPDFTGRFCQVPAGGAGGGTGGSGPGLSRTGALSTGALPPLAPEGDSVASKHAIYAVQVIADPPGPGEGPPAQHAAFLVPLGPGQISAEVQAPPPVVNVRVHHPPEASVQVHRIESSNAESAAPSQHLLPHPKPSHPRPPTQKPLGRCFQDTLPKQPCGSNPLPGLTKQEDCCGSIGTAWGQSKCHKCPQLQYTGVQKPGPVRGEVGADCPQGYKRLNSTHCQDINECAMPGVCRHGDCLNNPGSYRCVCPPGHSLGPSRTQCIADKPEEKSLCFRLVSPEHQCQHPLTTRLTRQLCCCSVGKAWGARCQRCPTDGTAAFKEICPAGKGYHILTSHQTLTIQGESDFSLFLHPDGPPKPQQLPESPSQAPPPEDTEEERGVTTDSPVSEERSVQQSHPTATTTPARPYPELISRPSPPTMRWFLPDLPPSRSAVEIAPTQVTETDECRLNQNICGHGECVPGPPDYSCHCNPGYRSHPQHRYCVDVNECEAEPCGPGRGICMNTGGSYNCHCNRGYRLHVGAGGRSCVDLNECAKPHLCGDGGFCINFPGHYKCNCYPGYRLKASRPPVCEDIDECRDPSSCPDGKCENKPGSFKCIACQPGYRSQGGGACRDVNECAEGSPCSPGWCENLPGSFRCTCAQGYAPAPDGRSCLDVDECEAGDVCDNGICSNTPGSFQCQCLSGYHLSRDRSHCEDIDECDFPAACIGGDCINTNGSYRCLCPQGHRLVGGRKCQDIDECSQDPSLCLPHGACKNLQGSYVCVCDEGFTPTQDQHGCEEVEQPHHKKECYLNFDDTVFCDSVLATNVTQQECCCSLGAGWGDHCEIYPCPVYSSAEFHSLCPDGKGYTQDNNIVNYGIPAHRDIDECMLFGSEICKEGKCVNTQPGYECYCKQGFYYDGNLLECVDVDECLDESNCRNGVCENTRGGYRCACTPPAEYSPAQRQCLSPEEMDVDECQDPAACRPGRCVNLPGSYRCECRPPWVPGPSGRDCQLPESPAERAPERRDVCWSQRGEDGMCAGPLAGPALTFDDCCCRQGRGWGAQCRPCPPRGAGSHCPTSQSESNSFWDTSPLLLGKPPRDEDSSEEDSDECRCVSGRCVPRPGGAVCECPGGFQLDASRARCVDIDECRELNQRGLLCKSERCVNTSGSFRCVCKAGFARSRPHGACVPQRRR
T2 sequence (P01137 30-390 limits assumed, chain 2 of 2): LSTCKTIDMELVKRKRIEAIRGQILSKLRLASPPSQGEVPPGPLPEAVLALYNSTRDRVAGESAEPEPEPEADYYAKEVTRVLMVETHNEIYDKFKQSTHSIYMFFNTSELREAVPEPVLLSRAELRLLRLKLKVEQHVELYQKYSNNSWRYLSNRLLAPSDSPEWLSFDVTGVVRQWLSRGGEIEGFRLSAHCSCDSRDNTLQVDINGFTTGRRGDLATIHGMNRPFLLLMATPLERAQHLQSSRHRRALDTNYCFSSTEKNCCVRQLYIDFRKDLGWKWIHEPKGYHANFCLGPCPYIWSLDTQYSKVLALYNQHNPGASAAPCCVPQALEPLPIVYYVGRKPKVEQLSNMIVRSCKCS
T3 sequence (Q14392 18-627 limits assumed, chain 1 of 2): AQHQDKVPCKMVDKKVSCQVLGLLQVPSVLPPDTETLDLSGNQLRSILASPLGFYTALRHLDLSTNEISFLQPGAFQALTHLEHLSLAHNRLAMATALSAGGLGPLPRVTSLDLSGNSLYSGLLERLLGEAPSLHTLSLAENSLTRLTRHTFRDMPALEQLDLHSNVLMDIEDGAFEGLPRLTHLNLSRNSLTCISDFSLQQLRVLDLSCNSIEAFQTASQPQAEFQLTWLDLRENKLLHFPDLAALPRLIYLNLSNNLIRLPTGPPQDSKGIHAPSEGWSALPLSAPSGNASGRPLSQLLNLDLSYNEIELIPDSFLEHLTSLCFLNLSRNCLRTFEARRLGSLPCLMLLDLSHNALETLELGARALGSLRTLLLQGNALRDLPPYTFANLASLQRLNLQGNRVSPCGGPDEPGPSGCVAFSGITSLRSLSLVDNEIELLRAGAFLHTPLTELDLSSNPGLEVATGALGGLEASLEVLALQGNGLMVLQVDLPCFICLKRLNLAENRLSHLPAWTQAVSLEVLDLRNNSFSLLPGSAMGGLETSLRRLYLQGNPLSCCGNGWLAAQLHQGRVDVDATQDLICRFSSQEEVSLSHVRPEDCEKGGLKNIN
T3 sequence (P01137 30-390 limits assumed, chain 2 of 2): as the sequence (P01137 30-390 limits assumed, chain 2 of 2) above
T7 sequence (Q86YC3 19-650 limits assumed, chain 1 of 2): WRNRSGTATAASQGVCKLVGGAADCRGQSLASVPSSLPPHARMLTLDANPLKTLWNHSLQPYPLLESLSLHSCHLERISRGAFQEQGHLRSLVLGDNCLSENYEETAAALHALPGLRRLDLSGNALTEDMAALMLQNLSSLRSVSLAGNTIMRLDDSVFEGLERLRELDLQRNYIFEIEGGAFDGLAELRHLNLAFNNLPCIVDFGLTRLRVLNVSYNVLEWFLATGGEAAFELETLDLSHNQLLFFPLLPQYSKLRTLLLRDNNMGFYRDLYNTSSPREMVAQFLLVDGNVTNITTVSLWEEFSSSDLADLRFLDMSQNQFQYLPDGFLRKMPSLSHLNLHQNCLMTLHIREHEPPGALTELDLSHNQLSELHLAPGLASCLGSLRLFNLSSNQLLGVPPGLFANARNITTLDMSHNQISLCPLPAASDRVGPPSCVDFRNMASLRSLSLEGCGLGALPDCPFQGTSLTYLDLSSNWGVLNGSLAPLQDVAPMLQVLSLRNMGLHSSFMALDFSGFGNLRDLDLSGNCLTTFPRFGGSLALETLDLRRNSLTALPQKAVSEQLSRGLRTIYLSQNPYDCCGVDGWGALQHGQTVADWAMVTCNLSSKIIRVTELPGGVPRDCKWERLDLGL
T7 sequence (P01137 30-390 limits assumed, chain 2 of 2): as the sequence (P01137 30-390 limits assumed, chain 2 of 2) above
Sequence of mLRRC33-proTGFβ1 (Q8BMT4 20-651): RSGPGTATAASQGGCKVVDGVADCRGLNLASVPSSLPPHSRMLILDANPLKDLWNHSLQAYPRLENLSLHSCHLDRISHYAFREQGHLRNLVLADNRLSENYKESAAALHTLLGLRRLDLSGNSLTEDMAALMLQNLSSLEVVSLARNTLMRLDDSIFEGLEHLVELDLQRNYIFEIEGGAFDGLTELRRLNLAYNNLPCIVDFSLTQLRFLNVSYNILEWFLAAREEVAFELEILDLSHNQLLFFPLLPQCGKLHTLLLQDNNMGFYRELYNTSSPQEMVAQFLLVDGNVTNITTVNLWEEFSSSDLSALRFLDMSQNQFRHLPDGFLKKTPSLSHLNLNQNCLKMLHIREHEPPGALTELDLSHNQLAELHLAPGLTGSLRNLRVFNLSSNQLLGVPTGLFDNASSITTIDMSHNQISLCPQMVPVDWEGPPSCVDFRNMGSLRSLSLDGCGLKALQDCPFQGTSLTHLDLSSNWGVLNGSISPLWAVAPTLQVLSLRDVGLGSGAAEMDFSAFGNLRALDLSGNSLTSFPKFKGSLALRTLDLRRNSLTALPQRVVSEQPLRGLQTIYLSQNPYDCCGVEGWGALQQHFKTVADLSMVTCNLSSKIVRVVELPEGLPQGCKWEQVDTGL

B1: Ab46 Fab (Fab, V domains shown)
VH: EVQLLESGGGLVQPGGSLRLSCAASGFTFADYAMTWVRQAPGKGLEWVSAISGSGAATYFADSVKGRFTISRDNSKNTLYLQMNSLRAEDTAVYYCARVSSGHWDYDYWGQGTLVTVSS
VL: DIQLTQSPSSLSASVGDRVTITCRASQSISSYLNWYQQKPGKAPKLLIYAASGLESGVPSRFSGSGSGTDFTLTISSLQPEDFATYYCQQTYGVPLTFGGGTKVEIK
notes: Fab fragment
With B1 the Kd (hLTBP1-proTGFβ1 [1]) was 0.0502 nM, the koff (hLTBP1-proTGFβ1 [1]) was 8.81e-05 s⁻¹ and the kon (hLTBP1-proTGFβ1 [1]) was 1.75e+06 M⁻¹ s⁻¹. It also gave a Kd (hLTBP3-proTGFβ1 [2]) of 0.127 nM, a koff (hLTBP3-proTGFβ1 [2]) of 0.000128 s⁻¹ and a kon (hLTBP3-proTGFβ1 [2]) of 1e+06 M⁻¹ s⁻¹. For the same binder, the Kd (hGARP-proTGFβ1 [3]) was 0.23 nM, the koff (hGARP-proTGFβ1 [3]) was 0.000222 s⁻¹ and the kon (hGARP-proTGFβ1 [3]) was 965000 M⁻¹ s⁻¹. The Kd (mLTBP1-proTGFβ1) was 0.0534 nM, the koff (mLTBP1-proTGFβ1) was 9.87e-05 s⁻¹ and the kon (mLTBP1-proTGFβ1) was 1.85e+06 M⁻¹ s⁻¹. The Kd (mLTBP3-proTGFβ1) was 0.0956 nM, the koff (mLTBP3-proTGFβ1) was 0.000115 s⁻¹ and the kon (mLTBP3-proTGFβ1) was 1.2e+06 M⁻¹ s⁻¹. The Kd (mGARP-proTGFβ1 [4]) was 0.274 nM, the koff (mGARP-proTGFβ1 [4]) was 0.000278 s⁻¹ and the kon (mGARP-proTGFβ1 [4]) was 1.02e+06 M⁻¹ s⁻¹. It also gave a Kd (hLRRC33-proTGFβ1 [5]) of 0.0841 nM, a koff (hLRRC33-proTGFβ1 [5]) of 0.000128 s⁻¹ and a kon (hLRRC33-proTGFβ1 [5]) of 1.52e+06 M⁻¹ s⁻¹. For the same binder, the Kd (mLRRC33-proTGFβ1) was 0.0892 nM, the koff (mLRRC33-proTGFβ1) was 0.000112 s⁻¹ and the kon (mLRRC33-proTGFβ1) was 1.26e+06 M⁻¹ s⁻¹. For the same binder, the Fold difference (mGARP-proTGFβ1 [6]) was 69 fold, the Fold difference (hLRRC33-proTGFβ1 [7]) was 118 fold and the Kd (hLTBP1-proTGFβ1 [8]) was 0.035 nM. The koff (hLTBP1-proTGFβ1 [8]) was 8.52e-05 s⁻¹, the kon (hLTBP1-proTGFβ1 [8]) was 2.44e+06 M⁻¹ s⁻¹ and the Kd (hLTBP3-proTGFβ1 [9]) was 0.109 nM. It also gave a koff (hLTBP3-proTGFβ1 [9]) of 0.000195 s⁻¹, a kon (hLTBP3-proTGFβ1 [9]) of 1.78e+06 M⁻¹ s⁻¹ and a Kd (hGARP-proTGFβ1 [10]) of 0.19 nM. For the same binder, the koff (hGARP-proTGFβ1 [10]) was 0.000359 s⁻¹, the kon (hGARP-proTGFβ1 [10]) was 1.89e+06 M⁻¹ s⁻¹ and the Kd (hLRRC33-proTGFβ1 [11]) was 0.119 nM. For the same binder, the koff (hLRRC33-proTGFβ1 [11]) was 0.000162 s⁻¹ and the kon (hLRRC33-proTGFβ1 [11]) was 1.36e+06 M⁻¹ s⁻¹.

Source: patent US20240294623A1 (SCHOLAR ROCK, published 2024)
